Data as given in patent US20240026331.

Target: gliadin substrate

Protein	proteolytic activity on gliadin substrate (percent of gliadin remaining, RIDASCREEN Gliadin competitive ELISA; pH 4, 37 C, 5 or 30 min)	gliadin digestion in buffered SGF (pH 3, 0.8 mg/mL pepsin), RIDASCREEN Gliadin competitive ELISA, 0-60 min	proteolytic activity on gliadin substrate inside a mouse stomach (enzyme-to-substrate ratio 1:1000 or 1:10,000, 15 min; RIDASCREEN Gliadin competitive ELISA)	gliadin digestion in buffered SGF (pH 3, 0.8 mg/mL pepsin), RIDASCREEN Gliadin competitive ELISA
unactivated neprosin polypeptide prepared from cells expressing mSP-His-Npr1 (SEQ ID NO: 40) (protein) HHHHHHRSIQARLANKPKGTIKTIKGDDGEVVDCVDIYKQPAFDHPLLKNHTLQMQPSSYASKVGEYNKLEQPWHKNGECPKGSIPIRRQVITGLPVVKKQFPNLKFAPPSANTNHQYAVIAYFYGNASLQGANATINIWEPNLKNPNGDFSLTQIWISAGSGSSLNTIEAGWQVYPGRTGDSQPRFFIYWTADGYTSTGCYDLTCPGFVQTNNYYAIGMALQPSVYGGQQYELNESIQRDPATGNWWLYLWGTVVGYWPASIYNSITNGADTVEWGGEIYDSSGTGGFHTTTQMGSGHFPTEGYGKASYVRDLQCVDTYGNVISPTANSFQGIAPAPNCYNYQFQQGSSELYLFYGGPGCQ	Neprosin preparation activated by treatment at acidic pH displays significantly greater proteolytic activity compared to unactivated neprosin polypeptide prepared from cells expressing mSP-His-Npr1			
activated (mature, proteolytically active) neprosin Npr1 prepared by acid treatment (100 mM glycine, pH 2.5) of Npr1 purified from cells expressing … (protein) SANTNHQYAVIAYFYGNASLQGANATINIWEPNLKNPNGDFSLTQIWISAGSGSSLNTIEAGWQVYPGRTGDSQPRFFIYWTADGYTSTGCYDLTCPGFVQTNNYYAIGMALQPSVYGGQQYELNESIQRDPATGNWWLYLWGTVVGYWPASIYNSITNGADTVEWGGEIYDSSGTGGFHTTTQMGSGHFPTEGYGKASYVRDLQCVDTYGNVISPTANSFQGIAPAPNCYNYQFQQGSSELYLFYGGPGCQ	Neprosin preparation activated by treatment at acidic pH displays significantly greater proteolytic activity compared to unactivated neprosin polypeptide prepared from cells expressing mSP-His-Npr1	shows equivalent gliadin digestion activity when compared to the enzyme prepared from mammalian CHO cells	dose-dependent proteolytic activity of activated WT Npr1 prepared from Npr1 expressed in CHO cells on gliadin substrate inside a mouse stomach	
activated WT Npr1 prepared from Npr1 expressed in Pichia cells (pJAG-s1-His-Npr1) (protein) SANTNHQYAVIAYFYGNASLQGANATINIWEPNLKNPNGDFSLTQIWISAGSGSSLNTIEAGWQVYPGRTGDSQPRFFIYWTADGYTSTGCYDLTCPGFVQTNNYYAIGMALQPSVYGGQQYELNESIQRDPATGNWWLYLWGTVVGYWPASIYNSITNGADTVEWGGEIYDSSGTGGFHTTTQMGSGHFPTEGYGKASYVRDLQCVDTYGNVISPTANSFQGIAPAPNCYNYQFQQGSSELYLFYGGPGCQ		The activated neprosin protease from Pichia is proteolytically active on gliadin substrate in SGF and shows equivalent gliadin digestion activity when compared to the enzyme prepared from mammalian CHO cells		
activated N216A/N324A Npr1 prepared from pJAG-s1-His-N216A, N324A Npr1 expressed in Pichia cells (SEQ ID NO: 66) (protein) SANTNHQYAVIAYFYGAASLQGANATINIWEPNLKNPNGDFSLTQIWISAGSGSSLNTIEAGWQVYPGRTGDSQPRFFIYWTADGYTSTGCYDLTCPGFVQTNNYYAIGMALQPSVYGGQQYELAESIQRDPATGNWWLYLWGTVVGYWPASIYNSITNGADTVEWGGEIYDSSGTGGFHTTTQMGSGHFPTEGYGKASYVRDLQCVDTYGNVISPTANSFQGIAPAPNCYNYQFQQGSSELYLFYGGPGCQ				Both N216A Npr1 and N216A/N324A Npr1 digested gliadin in a similar manner as WT Npr1 produced in Pichia
activated N216A Npr1 prepared from pJAG-s1-His-N216A Npr1 expressed in Pichia cells (SEQ ID NO: 60) (protein) SANTNHQYAVIAYFYGAASLQGANATINIWEPNLKNPNGDFSLTQIWISAGSGSSLNTIEAGWQVYPGRTGDSQPRFFIYWTADGYTSTGCYDLTCPGFVQTNNYYAIGMALQPSVYGGQQYELNESIQRDPATGNWWLYLWGTVVGYWPASIYNSITNGADTVEWGGEIYDSSGTGGFHTTTQMGSGHFPTEGYGKASYVRDLQCVDTYGNVISPTANSFQGIAPAPNCYNYQFQQGSSELYLFYGGPGCQ				Both N216A Npr1 and N216A/N324A Npr1 digested gliadin in a similar manner as WT Npr1 produced in Pichia
